How the values were obtained:
Arp2/3 complex = assay: Actin polymerisation on beads coated with WASP protein, in lysed cell supernatants; assay type: biochemical; details: substance added to lysed mammal, in particular human
Text: a stage of placing, in a medium containing actin and the elements necessary for actin polymerisation i.e. the Arp2/3 complex, in particular in an extract of lysed cell supernatant, the tested molecule with a reagent comprising WASP family proteins in the eucaryotic cells, in particular human or of other mammal cells, or insect cells, or from micro-organisms such as yeasts, or peptide fragments of these WASP family proteins, said peptide fragments having the property of the WASP family proteins to polymerise the actin by inducing cellular motility, or peptide sequences derived from WASP family proteins or the abovementioned peptide fragments, in particular by substitution of one or more amino acids of these fragments, said derived sequences having the abovementioned property of the WASP family proteins and said fragments of the latter, said abovementioned WASP family proteins, or peptide fragments or derived sequences, being bound or adsorbed to a support as defined above,
followed by the optional detection of an inhibition or an activation of the process of actin polymerisation at the surface of said reagent, in comparison to a control, corresponding respectively to an effect of inhibition or of stimulation of the tested molecule on the formation of the actin cytoskeleton by the mechanism involving the bonding of said WASP family proteins, or abovementioned peptide fragments or derived sequences, with the Arp2/3 complex.

[1] = tested on: proteins of the Ena/VASP family; assay: Actin polymerisation on beads coated with proteins binding to the Ena/VASP family (beads of the invention), in lysed cell supernatants; assay type: biochemical, mammal, in particular human; details: for inhibition of actin polymerisation detected using the beads of the invention: substance added to lysed mammal, in particular human, cell supernatants
Text: a stage of placing the tested molecule in the presence of a reagent as defined above, in a medium containing actin and the elements necessary for actin polymerisation defined above, in particular in an extract of lysed cell supernatant,
followed by the optional detection of an inhibition or an activation of the process of actin polymerisation at the surface of said reagent, in comparison to a control (namely a medium as described above not containing the tested molecule, and in which is found said reagent), corresponding respectively to an effect of inhibition or stimulation of the tested molecule on the formation of the actin cytoskeleton by the mechanism involving the abovementioned protein or peptide bond or their derived sequence, with a protein of the Ena protein/VASP family.
The abovementioned medium in which the tested molecule is placed in the presence of said reagent, advantageously contains a compound labelled in particular by fluorescence, making it possible to detect actin polymerisation on said reagent. By way of illustration, the abovementioned labelled compound is a fluorescent derivative of actin, such as actin-rhodamine (commercially available), making it possible to visualize actin polymerisation by epifluorescence microscopy.
The GST-ActA-Pro protein was adsorbed onto 500 nm latex beads (Polyscience Inc, 400 Valley Road, Warrington Pa., USA) according to the manufacturers' instructions.

[2] = tested on: mitochondria carrying zyxin at their surface; assay: Actin polymerisation in mitochondria carrying zyxin at their surface; assay type: cell-based
Text: Furthermore, as a number of processes dependant on actin polymerisation require the recruitment and activation of the Arp2/3 complex, the Inventors have searched for the presence of this complex in the mitochondria carrying zyxin at their surface.

ActA-Pro: ActA protein fragment of Listeria monocytogenes, 350 amino acids, positions 235 to 584 of SEQ ID NO 2
inhibition of actin polymerisation detected using beads coated with WASP protein (Arp2/3 complex): not inhibited
inhibition of actin polymerisation detected using the beads of the invention [1]: inhibited

B1: N-WASP: N-WASP protein, approximately 45% sequence identity with human WASP protein; interacts with the Arp2/3 complex (protein, UniProt O00401 2-505, looked up)
Actin nucleation-promoting …: SSVQQQPPPPRRVTNVGSLLLTPQENESLFTFLGKKCVTMSSAVVQLYAADRNCMWSKKCSGVACLVKDNPQRSYFLRIFDIKDGKLLWEQELYNNFVYNSPRGYFHTFAGDTCQVALNFANEEEAKKFRKAVTDLLGRRQRKSEKRRDPPNGPNLPMATVDIKNPEITTNRFYGPQVNNISHTKEKKKGKAKKKRLTKADIGTPSNFQHIGHVGWDPNTGFDLNNLDPELKNLFDMCGISEAQLKDRETSKVIYDFIEKTGGVEAVKNELRRQAPPPPPPSRGGPPPPPPPPHNSGPPPPPARGRGAPPPPPSRAPTAAPPPPPPSRPSVAVPPPPPNRMYPPPPPALPSSAPSGPPPPPPSVLGVGPVAPPPPPPPPPPPGPPPPPGLPSDGDHQVPTTAGNKAALLDQIREGAQLKKVEQNSRPVSCSGRDALLDQIRQGIQLKSVADGQESTPPTPAPTSGIVGALMEVMQKRSKAIHSSDEDEDEDDEEDFEDDDEWED
inhibition of actin polymerisation detected using beads coated with WASP protein (Arp2/3 complex): inhibited
inhibition of actin polymerisation detected using the beads of the invention [1]: not inhibited

B2: WASP: WASP protein, expressed from the WAS gene mutated in Wiskott-Aldrich Syndrome; interacts with the Arp2/3 complex (protein, UniProt P42768 2-502, looked up)
Actin nucleation-promoting …: SGGPMGGRPGGRGAPAVQQNIPSTLLQDHENQRLFEMLGRKCLTLATAVVQLYLALPPGAEHWTKEHCGAVCFVKDNPQKSYFIRLYGLQAGRLLWEQELYSQLVYSTPTPFFHTFAGDDCQAGLNFADEDEAQAFRALVQEKIQKRNQRQSGDRRQLPPPPTPANEERRGGLPPLPLHPGGDQGGPPVGPLSLGLATVDIQNPDITSSRYRGLPAPGPSPADKKRSGKKKISKADIGAPSGFKHVSHVGWDPQNGFDVNNLDPDLRSLFSRAGISEAQLTDAETSKLIYDFIEDQGGLEAVRQEMRRQEPLPPPPPPSRGGNQLPRPPIVGGNKGRSGPLPPVPLGIAPPPPTPRGPPPPGRGGPPPPPPPATGRSGPLPPPPPGAGGPPMPPPPPPPPPPPSSGNGPAPPPLPPALVPAGGLAPGGGRGALLDQIRQGIQLNKTPGAPESSALQPPPQSSEGLVGALMHVMQKRSRAIHSSDEGEDQAGDEDEDDEWDD
inhibition of actin polymerisation detected using beads coated with WASP protein (Arp2/3 complex): inhibited
inhibition of actin polymerisation detected using the beads of the invention [1]: not inhibited
inhibition of actin polymerisation in the mitochondria [2]: does not inhibit

B3: GST-ActA-Pro: recombinant protein composed of GST (237 residues) and proline rich and carboxy-terminal central parts of ActA (350 residues, SEQ ID NO 6) (protein)
chain: DFPPPPTDEELRLALPETPMLLGFNAPATSEPSSFEFPPPPTDEELRLALPETPMLLGFNAPATSEPSSFEFPPPPTEDELEIIRETASSLDSSFTRGDLASLRNAINRHSQNFSDFPPIPTEEELNGRGGRPTSEEFSSLNSGDFTDDENSETTEEEIDRLADLRDRGTGKHSRNAGFLPLNPFASSPVPSLSPKVSKISAPALISDITKKTPFKNPSQPLNVFNKKTTTKTVTKKPTPVKTAPKLAELPATKPQETVLRENKTPFIEKQAETNKQSINMPSLPVIQKEATESDKEEMKPQTEEKMVEESESANNANGKNRSAGIEEGKLIAKSAEDEKAKEEPGNHTT
nucleation of actin by the coated beads ([1]; protein adsorbed onto 500 nm latex beads, added to extracts prepared from cells): capable of nucleating the actin

Reference: US20030170726A1, “Peptides sequences comprising one or several protein binding units of the ena/vasp family and the uses thereof” (priority 2000, published 2003)
